{"source": "patent US20260274928A1", "binders": {"B1": {"name": "S2V29-v37.2 (antibody, V domains shown)", "VH": "EVQLVESGGSVVQPGRALRLSCAASGITFSSFGMYWVRQAPGKGLEWLGYIAYDGSDTYYADSVKGRFTISRDNSKNTLYLQMNSLRIEDTAVYYCAKDYYPLLSYYYGLDVWGQGTTVTVSS", "VL": "QSVLTQPRSVSGSPGQSVTISCTGTSSDVGAYNYVSWYQQHPGKAPKFMIYDVDQRPSGVPDRFSGSKSGNTASLIISGLQAEDEADYYCSSYAGSYIWVFGGGTQLTVL"}}, "molecular_target": "9-strain panel of authentic SARS-CoV-2 viral isolates", "assay": "cell-based or functional assay"}
{"binder": "B1", "values": [{"measurement": "IC50, authentic virus neutralization", "value": "1.3 to 9.6", "unit": "ng/mL"}, {"measurement": "median IC50, authentic virus neutralization", "value": 2, "unit": "ng/mL"}]}
